This is an account of results in article PMC4432651, “Dynamic interplay between catalytic and lectin domains of GalNAc-transferases modulates protein O-glycosylation” (Nature Communications, 2015).

Where no end group is shown, it is not given here.

For series [1], the target named is T1, polypeptide N-acetylgalactosaminyltransferase 2 (GalNAc-T2), K75-Q571 (human, UniProt Q10471 75-571).
T1 construct: GalNAc-T2 (polypeptide N-acetylgalactosaminyltransferase 2), residues K75-Q571: catalytic domain, flexible linker and lectin domain; Theoretical MW 56.7 kDa (D1:p10); source: expression plasmid pPICZαAgalnact2 (K75-Q571)
T1 sequence (Q10471 75-571): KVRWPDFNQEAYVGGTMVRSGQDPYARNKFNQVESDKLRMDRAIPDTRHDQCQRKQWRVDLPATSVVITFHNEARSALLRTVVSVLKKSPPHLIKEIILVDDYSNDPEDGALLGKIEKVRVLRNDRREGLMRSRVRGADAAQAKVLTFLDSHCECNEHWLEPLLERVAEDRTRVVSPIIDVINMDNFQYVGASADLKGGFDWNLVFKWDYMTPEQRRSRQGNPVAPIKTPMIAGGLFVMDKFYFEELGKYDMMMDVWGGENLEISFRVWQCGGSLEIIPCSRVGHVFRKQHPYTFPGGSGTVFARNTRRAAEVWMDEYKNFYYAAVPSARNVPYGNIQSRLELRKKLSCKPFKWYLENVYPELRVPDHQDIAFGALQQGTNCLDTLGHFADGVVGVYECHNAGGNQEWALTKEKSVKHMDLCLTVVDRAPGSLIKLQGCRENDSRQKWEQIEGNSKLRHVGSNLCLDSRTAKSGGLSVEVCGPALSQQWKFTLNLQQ
Description: other fluorescence titration; tryptophan fluorescence quenching of GalNAc-T2 (1 µM) by peptides at 1-500 µM; 25 mM Tris, 150 mM NaCl, pH 7.5, 25 °C; no UDP/Mn2+; single binding site model. As to conditions: both partners purified.

Series [2] concerns the target T1, polypeptide …. Description: other fluorescence titration; tryptophan fluorescence quenching of GalNAc-T2 (1 µM) by peptides at 1-500 µM; 25 mM Tris, 150 mM NaCl, pH 7.5, 25 °C; with 400 µM UDP and 1 mM MnCl2; single binding site model. As to conditions: both partners purified.
Series [3] concerns the molecule itself. Description: SAXS; solution scattering with ensemble analysis (EOM), monomer and dimer pools; enzyme without ligands (2.5, 5.0 and 10.0 mg/ml) or with UDP or UDP-GalNAc.

B1: MUC5AC peptide (naked) (peptide)
peptide: GTTPSPVPTTSTTSA
notes: peptide named after mucin MUC5AC; Made on Rink amide resin, so the C-terminus is probably an amide (surmised); source: synthetic peptide (Fmoc solid-phase synthesis on Rink Amide MBHA resin, HPLC purified)
For orientation: Kd means the free concentration of one partner at which half of the binding sites on the other are occupied at equilibrium, for simple one-to-one binding. A higher Kd goes with lower affinity. For the molecule B1, the dissociation constant (Kd) in series [1] came to 7 ± 3 µM; in series [2], 31 ± 16 µM.

B2: MUC5AC-3-13 diglycosylated peptide (peptide)
peptide: GTT(GalNAc)PSPVPTTSTT(GalNAc)SA
modifications: not fully specified (C-terminus)
notes: Made on Rink amide resin, so the C-terminus is probably an amide (surmised); source: synthetic peptide (Fmoc solid-phase synthesis on Rink Amide MBHA resin, HPLC purified)
Consider B2, for which the results for the equilibrium dissociation constant (Kd) in series [1] and in series [2] were 11 ± 4 µM and 17 ± 9 µM, respectively.

B3: polypeptide N-acetylgalactosaminyltransferase 2 (GalNAc-T2), K75-Q571 (enzyme)
chain: not shown
notes: GalNAc-T2, residues K75-Q571, catalytic domain, flexible linker and lectin domain; Monomers and dimers coexist in solution by SAXS; also called wild-type (WT) enzyme
By stoichiometry N is commonly meant the number of molecules, sites or subunits per partner or assembly. Turning to B3, the “stoichiometry N” value in series [3] was found to be 2.

B4: MUC5AC-13 glycopeptide (peptide)
peptide: GTTPSPVPTTSTT(GalNAc)SA
notes: as for B2
Turning to B4, the dissociation constant Kd amounted to 8 ± 3 µM in series [1] and 5 ± 1 µM in series [2].
